From paper PMC8873477, “Structural basis of adenylyl cyclase 9 activation” (Nature Communications, 2022)

Biological target: T1, C-terminally truncated bovine AC9_(1250) (residues 1-1250 of AC9) (bovine, UniProt E1BM79 1-1250)
T1 construct: the purification is said to be identical to that of AC9; source: HEK293F cells, transient transfection (PEI), purified as AC9
T1 sequence (looked up): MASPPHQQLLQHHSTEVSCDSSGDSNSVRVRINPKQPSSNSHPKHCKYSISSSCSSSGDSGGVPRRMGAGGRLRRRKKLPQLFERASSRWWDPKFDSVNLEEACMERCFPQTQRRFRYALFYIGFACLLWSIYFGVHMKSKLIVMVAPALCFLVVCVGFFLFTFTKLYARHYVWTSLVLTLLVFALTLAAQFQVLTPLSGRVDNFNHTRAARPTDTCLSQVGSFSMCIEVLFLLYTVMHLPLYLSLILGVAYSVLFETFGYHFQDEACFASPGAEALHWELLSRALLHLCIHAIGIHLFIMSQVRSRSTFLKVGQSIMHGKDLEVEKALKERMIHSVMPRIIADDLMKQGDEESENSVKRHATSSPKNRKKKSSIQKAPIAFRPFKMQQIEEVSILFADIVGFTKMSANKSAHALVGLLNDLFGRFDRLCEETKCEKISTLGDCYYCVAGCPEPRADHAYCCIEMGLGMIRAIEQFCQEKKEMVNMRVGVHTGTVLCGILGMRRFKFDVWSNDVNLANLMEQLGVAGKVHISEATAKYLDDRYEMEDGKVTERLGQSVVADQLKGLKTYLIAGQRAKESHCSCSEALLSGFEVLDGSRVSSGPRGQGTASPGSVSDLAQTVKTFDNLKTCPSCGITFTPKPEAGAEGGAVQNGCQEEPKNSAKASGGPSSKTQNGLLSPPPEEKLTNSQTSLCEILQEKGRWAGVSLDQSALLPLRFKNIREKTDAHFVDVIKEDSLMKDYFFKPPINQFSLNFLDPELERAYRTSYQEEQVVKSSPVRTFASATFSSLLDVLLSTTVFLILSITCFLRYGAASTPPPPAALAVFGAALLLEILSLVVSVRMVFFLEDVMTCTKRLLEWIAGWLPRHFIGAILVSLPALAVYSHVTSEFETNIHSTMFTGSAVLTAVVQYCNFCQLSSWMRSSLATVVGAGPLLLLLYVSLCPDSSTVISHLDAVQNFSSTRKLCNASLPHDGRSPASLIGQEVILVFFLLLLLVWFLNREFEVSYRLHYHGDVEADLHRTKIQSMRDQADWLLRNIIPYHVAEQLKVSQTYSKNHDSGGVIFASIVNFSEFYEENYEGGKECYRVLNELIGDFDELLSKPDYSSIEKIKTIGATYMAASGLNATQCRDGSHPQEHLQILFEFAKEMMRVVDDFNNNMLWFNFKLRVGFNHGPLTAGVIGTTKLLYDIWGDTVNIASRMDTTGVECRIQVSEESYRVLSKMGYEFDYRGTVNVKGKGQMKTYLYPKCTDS
Test: cryo-EM structure; AC9_(1250) at 5 mg/ml with 5 mM MnCl2, 0.5 mM MANT-GTP and a 2-fold molar excess of GTPγS-activated Gαs, 30 min at 4 °C; no forskolin; soluble part refined to 3.8 Å
Conditions: both partners purified

B1: bovine Gαs (G protein αs subunit), GTPγS-activated (natural protein, UniProt P04896-1 1-394, looked up)
chain: MGCLGNSKTEDQRNEEKAQREANKKIEKQLQKDKQVYRATHRLLLLGAGESGKSTIVKQMRILHVNGFNGEGGEEDPQAARSNSDGEKATKVQDIKNNLKEAIETIVAAMSNLVPPVELANPENQFRVDYILSVMNVPDFDFPPEFYEHAKALWEDEGVRACYERSNEYQLIDCAQYFLDKIDVIKQDDYVPSDQDLLRCRVLTSGIFETKFQVDKVNFHMFDVGGQRDERRKWIQCFNDVTAIIFVVASSSYNMVIREDNQTNRLQEALNLFKSIWNNRWLRTISVILFLNKQDLLAEKVLAGKSKIEDYFPEFARYTTPEDATPEPGEDPRVTRAKYFIRDEFLRISTASGDGRHYCYPHFTCAVDTENIRRVFNDCRDIIQRMHLRQYELL
notes: bovine Gαs, Uniprot ID P04896-1; also called G protein α subunit; source: High Five insect cells, baculovirus, purified (Ni-NTA, Superdex 200 SEC)
- binding result: binds
